Results from patent publication US20030175271A1 (Kyowa Kirin, published 2003).

Target: ^125I-labeled human VEGF (human, UniProt P15692-4 27-191, limits assumed, 125I-labeled)
Test: competition against ^125I-VEGF (4 ng/ml) binding to coated KDR-7N-Fc
Protocol: Methanol was dispensed in 100 μl portions into wells of a 96-well Immobilon™-P Filtration Plate (manufactured by Millipore) to give hydrophilic nature to the PVDF membrane on the bottom of the plate. […] After washing, PBS containing 1% bovine serum albumin (BSA) was added in 200 μl/well portions and the reaction was carried out at room temperature for 30 minutes to block the remaining active residues.

Chain of ^125I-labeled human VEGF (P15692 other isoform, or with tags, fused parts or gaps limits assumed): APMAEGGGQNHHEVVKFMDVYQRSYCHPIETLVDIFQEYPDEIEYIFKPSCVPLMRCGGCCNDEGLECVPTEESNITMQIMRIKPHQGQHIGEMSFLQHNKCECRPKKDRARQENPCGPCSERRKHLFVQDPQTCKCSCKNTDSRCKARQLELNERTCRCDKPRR

B1: soluble human VEGF receptor KDR-1N-Fc (Fc fusion)
chain: ASVGLPSVSLDLPRLSIQKDILTIKANTTLQITCRGQRDLDWLWPNNQSGSEQRVEVTECSDGLFCKTLTIPKVIGNDTGAYKCFYRETDLASVIYVYVQDYRS
notes: not shown: linker #1 (6 residues)
binding result: no binding
